Three molecules from patent US20220107327A1, “MULTI-TARGET CROSSLINKERS AND USES THEREOF” (The Regents of the University of California, published 2022) can be followed below.

Data set [1] concerns the molecule itself. In words: NHSF or BS2G cross-linking of purified GST; SDS-PAGE and Western blot under reducing and denatured conditions (homodimer).
The target of data set [2] is SSB (single-stranded DNA binding protein) (UniProt P0AGE0 P0AGE0:2-178). In words: covalent crosslinking with NHQM + 365 nm UV, denaturing TBE-urea gel shift; 1.5 uM DNA, 0.2 mg/mL SSB, 37 C 30 min; no crosslink with BS3 or UV alone. The following applies: chain copies: 4.
Sequence of SSB (single-stranded DNA binding protein) (P0AGE0 2-178, one chain of several): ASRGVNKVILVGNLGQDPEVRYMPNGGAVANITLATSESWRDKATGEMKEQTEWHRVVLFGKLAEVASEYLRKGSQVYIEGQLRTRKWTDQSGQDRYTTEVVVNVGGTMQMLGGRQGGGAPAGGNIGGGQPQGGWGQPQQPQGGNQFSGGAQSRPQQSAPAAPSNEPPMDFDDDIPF

B1: E. coli wild type glutathione S-transferase (GST) (enzyme)
chain: MKLFYKPGACSLASHITLRESGKDFTLVSVDLMKKRLENGDDYFAVNPKGQVPALLLDDGTLLTEGVAIMQYLADSVPDRQLLAPVNSISRYKTIEWLNYIATELHKGFTPLFRPDTPEEYKPTVRAQLEKKLQYVNEALKDEHWICGQRFTIADAYLFTVLRWAYAVKLNLEGLEHIAAFMQRMAERPEVQDALSAEGLKHHHHHH
notes: Written as the single subunit
As to B1, the binding result in data set [1] is given as “binds”.

B2: 19(3x) (ssDNA)
DNA: TGTAGCTGTTGATCTAAGTTGTAGCTGTTGATCTAAGTTGTAGCTGTTGATCTAAGT
In the case of B2, in data set [2], the binding result is reported as “binds”.

B3: ATC(4x) (ssDNA)
DNA: AATTCGCCAATGACAAGACGCTGGGCGGGGCCGGATCCATCATCATCATCTAGAAGCT
Take B3: the binding result in data set [2] is on record as “binds”.
